{"source": "paper doi:10.1101/2025.11.18.688960", "assay_in_all_cases": "fluorescence anisotropy", "key": {"[1]": {"test_system": "Protamine 1 AA (P1 S43AT45A) (mouse)"}, "[2]": {"test_system": "Protamine 1 WT (P1) (mouse)"}, "[3]": {"test_system": "Protamine 1 EE (P1 S43ET45E) (mouse)"}}}
{"substance": "99 bp fluorescent dsDNA", "values": [{"measurement": "Kd", "setting": "[1]", "value": 610, "unit": "nM"}, {"measurement": "Kd", "setting": "[2]", "value": 430, "unit": "nM"}, {"measurement": "Kd", "setting": "[3]", "value": 1100, "unit": "nM"}]}
